From PMC6614819 (Nucleic Acids Research, 2019)
Blank lines part the entries; values can stand above or below the binder they belong to.

How the values were obtained:
Assay in all cases: SEC
TmTsaD K166A = TmTsaD K166A (Thermotoga maritima, UniProt Q9WXZ2 1-327, K166A)
TmTsaD K213A = TmTsaD K213A (Thermotoga maritima, UniProt Q9WXZ2 1-327, K213A)
TmTsaD S134A = TmTsaD S134A (Thermotoga maritima, UniProt Q9WXZ2 1-327, S134A)
TmTsaD D165A = TmTsaD D165A (Thermotoga maritima, UniProt Q9WXZ2 1-327, D165A)
Chain of TmTsaD D165A (Q9WXZ2 whole entry D165A): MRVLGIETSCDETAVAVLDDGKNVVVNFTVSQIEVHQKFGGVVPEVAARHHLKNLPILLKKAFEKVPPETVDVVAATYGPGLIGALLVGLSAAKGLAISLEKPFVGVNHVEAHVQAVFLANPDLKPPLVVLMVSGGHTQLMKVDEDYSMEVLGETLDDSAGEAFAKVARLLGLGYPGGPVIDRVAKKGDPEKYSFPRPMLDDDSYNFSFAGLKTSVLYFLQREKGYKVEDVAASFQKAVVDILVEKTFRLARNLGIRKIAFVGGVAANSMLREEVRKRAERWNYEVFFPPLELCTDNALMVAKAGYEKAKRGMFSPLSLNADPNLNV

TmTsaD D182A = TmTsaD D182A (Thermotoga maritima, UniProt Q9WXZ2 1-327, D182A)
Chain of TmTsaD D182A (Q9WXZ2 whole entry D182A): as the sequence (Q9WXZ2 whole entry D165A) above, with A165D, D182A counted along it

[1] = molecular target: T. maritima TsaD (TmTsaD), wild type (Thermotoga maritima, UniProt Q9WXZ2 1-327)
Chain of T. maritima TsaD (TmTsaD), wild type (Q9WXZ2 whole entry): as the sequence (Q9WXZ2 whole entry D165A) above, with A165D counted along it

Chain of TmTsaD K166A (Q9WXZ2 whole entry K166A): as the sequence (Q9WXZ2 whole entry D165A) above, with A165D, K166A counted along it
Chain of TmTsaD S134A (Q9WXZ2 whole entry S134A): as the sequence (Q9WXZ2 whole entry D165A) above, with S134A, A165D counted along it
Chain of TmTsaD K213A (Q9WXZ2 whole entry K213A): as the sequence (Q9WXZ2 whole entry D165A) above, with A165D, K213A counted along it

binding result (TmTsaD K166A): binds
binding result (TmTsaD K213A): binds
binding result (TmTsaD S134A): binds
binding result (TmTsaD D165A): binds
binding result (TmTsaD D182A): binds
B1: T. maritima TsaB (TmTsaB), wild type (natural protein, Thermotoga maritima)
chain: MNVLALDTSQRIRIGLRKGEDLFEISYTGEKKHAEILPVVVKKLLDELDLKVKDLDVVGVGIGPGGLTGLRVGIATVVGLVSPYDIPVAPLNSFEMTAKSCPADGVVLVARRARKGYHYCAVYLKDKGLNPLKEPSVVSDEELEEITKEFSPKIVLKDDLLISPAVLVEESERLFREKKTIHYYEIEPLYLQKSIAELNWEKKKRG

binding result [1]: binds
B2: TmTsaB deletion mutant lacking the C-terminal helix and tail Leu189-Gly206 (domain or fragment, Thermotoga maritima, UniProt Q9WZX7 1-188, looked up)
chain: MNVLALDTSQRIRIGLRKGEDLFEISYTGEKKHAEILPVVVKKLLDELDLKVKDLDVVGVGIGPGGLTGLRVGIATVVGLVSPYDIPVAPLNSFEMTAKSCPADGVVLVARRARKGYHYCAVYLKDKGLNPLKEPSVVSDEELEEITKEFSPKIVLKDDLLISPAVLVEESERLFREKKTIHYYEIEP
